The Kd is the free concentration of one partner at which half of the binding sites on the other are occupied at equilibrium, for simple one-to-one binding.

1 molecule from article PMC10711807 can be followed below.

The assay concerns the target TOLLIP, recombinant from bacteria, biotinylated (human), Q9H0E2. The assay can be described thus: BLI. Particulars: remark: other sources report otherwise.

B1: IRAK1, recombinant from bacteria, P51617 1-712 (enzyme)
chain: MAGGPGPGEPAAPGAQHFLYEVPPWVMCRFYKVMDALEPADWCQFAALIVRDQTELRLCERSGQRTASVLWPWINRNARVADLVHILTHLQLLRARDIITAWHPPAPLPSPGTTAPRPSSIPAPAEAEAWSPRKLPSSASTFLSPAFPGSQTHSGPELGLVPSPASLWPPPPSPAPSSTKPGPESSVSLLQGARPFPFCWPLCEISRGTHNFSEELKIGEGGFGCVYRAVMRNTVYAVKRLKENADLEWTAVKQSFLTEVEQLSRFRHPNIVDFAGYCAQNGFYCLVYGFLPNGSLEDRLHCQTQACPPLSWPQRLDILLGTARAIQFLHQDSPSLIHGDIKSSNVLLDERLTPKLGDFGLARFSRFAGSSPSQSSMVARTQTVRGTLAYLPEEYIKTGRLAVDTDTFSFGVVVLETLAGQRAVKTHGARTKYLKDLVEEEAEEAGVALRSTQSTLQAGLAADAWAAPIAMQIYKKHLDPRPGPCPPELGLGLGQLACCCLHRRAKRRPPMTQVYERLEKLQAVVAGVPGHSEAASCIPPSPQENSYVSSTGRAHSGAAPWQPLAAPSGASAQAAEQLQRGPNQPVESDESLGGLSAALRSWHLTPSCPLDPAPLREAGCPQGDTAGESSWGSGPGSRPTAVEGLALGSSASSSSEPPQIIINPARQKMVQKLALYEDGALDSLQLLSSSSLPGLGLEQDRQGPEESDEFQS
modifications: here or on the partner: biotin (biotinylated TOLLIP; site not told)
B1: the Kd amounted to 91.5 nM.
